Measured values from article PMC6793842.

Columns and labels:
Assay in all cases: SPR
[1] = target: gorilla basigin, entire ectodomain; conditions: read off a plot; for other: t1/2 (interaction half-life): parent: est. 1.9 s; for response (response units): plateau of the highest curve of four 2-fold serial dilutions (600 to 75 nM), parent: est. 92
[2] = target: human basigin, entire ectodomain (human) (UniProt P35613)
[3] = target: gorilla basigin, entire ectodomain (gorilla)
[4] = target: chimpanzee basigin, entire ectodomain (chimpanzee)

Sequence of human basigin, entire ectodomain (human) (P35613 138-325): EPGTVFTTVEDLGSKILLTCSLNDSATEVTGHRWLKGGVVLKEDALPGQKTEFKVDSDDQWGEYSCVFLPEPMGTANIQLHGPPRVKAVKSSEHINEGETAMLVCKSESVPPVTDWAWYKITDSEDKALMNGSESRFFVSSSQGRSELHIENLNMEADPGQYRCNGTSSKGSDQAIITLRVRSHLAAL

Substance | other: t1/2 (interaction half-life) [1] | response (response units) [1] | Kd [2] | also measured
introgressed ancestral RH5 (reticulocyte-binding protein homologue 5) (from UniProt Q8IFM5) Q219K | 2.2 s | 310 | – | –
introgressed ancestral RH5 (reticulocyte-binding protein homologue 5) (from UniProt Q8IFM5) Y203C | 1.2 s | 120 | – | –
P. gaboni RH5 (ligand) | – | – | 3600 nM | –
P. praefalciparum RH5 (ligand) | – | – | 1900 nM | Kd [3]: 2500 nM
introgressed ancestral RH5 (reticulocyte-binding protein homologue 5) (from UniProt Q8IFM5) D148H | 2.5 s | 190 | – | –
introgressed ancestral RH5 (reticulocyte-binding protein homologue 5) (from UniProt Q8IFM5) R216T | 2.3 s | 130 | – | –
P. billcollinsi RH5 (ligand) | – | – | – | Kd [4]: 1800 nM
P. adleri RH5 (ligand) | – | – | 3100 nM | Kd [3]: 1000 nM
introgressed ancestral RH5 (reticulocyte-binding protein homologue 5) (from UniProt Q8IFM5) H200Y | – | 26 | – | –
introgressed ancestral RH5 (reticulocyte-binding protein homologue 5) (from UniProt Q8IFM5) Y197S | 1.9 s | 210 | – | –
